A short description of experiment [1]: Insulin biosynthesis, summarised in Example 6. It counts as cell-based.
Experiment [2] has as its system inguinal fat. Kind of experiment: Daily intraperitoneal injection of RUCILP2 into chow-fed mice, gene expression in inguinal fat. It counts as in vivo, mouse. Conditions: 1 mg/kg i.p. daily, 7 days, normal chow. How it is done: FIG. 17. […] No effects on expression of marker genes for lipolysis. Recombinant RUCILP2 was daily injected intraperitoneal at a concentration of 1 mg/kg into 9-week-old wild type C57BL/6N mice for one week. The mRNA levels of indicated genes were analyzed by qRT-PCR. Data were expressed as mean±SEM, *, p<0.05; **, p<0.01; ***, p<0.001, when compared with phosphate-buffered saline (PBS) group, n=9 animals/group.
Mice (20 male wild type C57BL/6N, 8 weeks of age, Janvier) were single-housed at 23±1° C. on a 12-hour light/12-hour dark cycle with access to food and water ad libitum. After 7 days of acclimatization on a standard chow diet (Altromin 1328 diet contains 11% of fat, 24% of protein, and 65% of carbohydrates. This diet is a cereal-based (soy, wheat, corn) fixed formula which is free of alfalfa and fish/animal meal and deficient in nitrosamines) to avoid stress, the mice received daily intraperitoneal injection of 1 mg/kg recombinant RUCILP2, and saline, respectively, for 7 days. All animals were then sacrificed, and subcutaneous fat pads and liver tissue were collected. The mRNA levels of thermogenic genes including Ucp1, Elovl3, Cidea, and Prdm16 as well as lipogenic genes including Acaca and Fasn in inguinal fat were analyzed by qRT-PCR as described below.
RNA extraction and real-time PCR analysis: Total RNA was extracted from tissues using Trizol reagent (Invitrogen) according to the manufacturer's instructions, followed by concentration measurement. 1 μg RNA was transcribed to cDNA using the Reverse Transcription System (Promega). Real-time PCR was performed using the LC480 detection system (Roche Diagnostics) and SYBR Green I Supermix (Takara). Samples were run in duplicate in a single 384-well reaction plate. Data were normalized to the housekeeping Rp136, TBP or GAPDH genes and analyzed according to ΔΔCT method.

The subject of experiment [3] is H9C2 cardiomyoblasts. Put plainly: Gene expression in H9C2 cardiomyoblasts. Conditions: q-PCR. The format is cell-based. How it is done:
FIG. 13. […] The cells were treated with various doses of RUCILP2, and cells were collected for q-PCR quantification on indicated genes. For integrin inhibitor treatment, cells were treated with 10 uM of cRGDyK (Selleckchem, #S7844) for 10 minutes and washed with PBS before treated with RUCILP2. Data are presented as mean+/−SEM of one representative experiment done in technical triplicate. Statistical significance was determined by unpaired two-tailed Student's t-test. *, p<0.05 vs 0 nM RUCILP2.
Commercially available H9C2 cells (ATCC, #CRL-1446) were seeded on 12-well plates under DMEM/F-12 medium (Dulbecco's Modified Eagle Medium/Nutrient Mixture F-12, Fisher Scientific, #11524436), supplemented with 10% FBS (Fetal Bovine Serum, Fisher Scientific, #11550356) and 1% Penicillin-Streptomycin (Fisher Scientific, #11548876). Cell cultures were maintained in a humidified chamber with 5% CO2 at 37° C., and culture media were changed every 2-3 days.
At 70% confluence, the cells were treated with indicated concentrations of recombinant RUCILP2, commercial recombinant irisin (Sigma, #SRP8039-10UG and Phoenix pharmaceuticals, #067-29A), and PBS for 24 h. For integrin inhibitor treatment, cells were treated with 10 μM of CycloRGDyK (Selleckchem, #S7844) for 10 minutes and washed with PBS before treated with recombinant RUCILP2, commercial recombinant irisin and PBS. […]

For experiment [4], the system named is adipocytes. Put plainly: Oil red O staining of lipids in adipocytes. The format is cell-based, mouse. The method, then: FIG. 10. […] Staining was performed on 10% formalin-fixed adipocytes according to the manufacturer's protocol.
Oil red O staining of lipids in adipocytes was performed according to the protocol below: • (1) Fixation—Remove the medium and gently wash the cells twice with PBS. Add formalin (10%) to the cells and incubate for 30 minutes • (2) Discard the formalin and wash the cells twice using sterile water. Add 60% isopropanol to the cells and incubate for 5 minutes • (3) Discard 60% isopropanol and cover the cells evenly with Oil Red O Working Solution. Rotate the plate or dish, and incubate for 15 minutes • (4) Discard the Oil Red O solution and wash the cells four times with water until no excess stain is seen • (5) Add hematoxylin to the cells and incubate for 1 minute. Discard hematoxylin and wash the cells four times with water • (6) Cover the cells with sterile water and view under microscope. Lipid droplets appear red, and nuclei appear blue

B1: RUCILP2: 87 amino acid irisin-like polypeptide cleaved from the Ruminococcus torques FNDC5-like protein RUMTOR_00181; recombinant, 6-His-tagged from E. coli (protein)
chain: APVDVKVSEITETSAKASWKNAADGKEAAGYNVYVDGVKLNKELLTEASCGLTNLKAETTYFVEVTAVDAAGNESVKSEKVTFKTLK
modifications: 6-His tag; Ruminococcus torques
notes: 87 amino acid irisin-like polypeptide cleaved from the Ruminococcus torques FNDC5-like protein RUMTOR_00181; recombinant, 6-His-tagged from E. coli
On to B1, for which the insulin biosynthesis result in experiment [1] is given as “stimulates”. Further, in experiment [2], the “expression of a gene involved in lipogenesis” value is given as “reduces expression”, the “expression of genes involved in thermogenesis” value is listed as “induces expression” and the “expression of marker genes for lipolysis” value is listed as “No effects”. For the same molecule, the “gene expression in H9C2 cardiomyoblasts (markers of cardiomyogenesis)” value in experiment [3] is “stimulate gene expression”. The “lipid content in adipocytes (oil red O staining)” value in experiment [4] is on record as “reduces lipid content”.

These data come from patent US20240336661A1, “PEPTIDES DERIVED FROM RUMINOCOCCUS TORQUES” (University of Copenhagen, priority 2021, published 2024).
